According to patent US20250304703A1 (AKESO BIOPHARMA, published 2025):

Columns and labels:
human IL-4RA-hFc [1] = molecular target: T1, human IL-4RA-hFc (human, UniProt P24394 26-232); assay: competitive ELISA, competitor IL4-N-His, coated IL-4RA-hFc, 4-parameter fit
T1 construct: mature; no linker is stated
T1 sequence (looked up): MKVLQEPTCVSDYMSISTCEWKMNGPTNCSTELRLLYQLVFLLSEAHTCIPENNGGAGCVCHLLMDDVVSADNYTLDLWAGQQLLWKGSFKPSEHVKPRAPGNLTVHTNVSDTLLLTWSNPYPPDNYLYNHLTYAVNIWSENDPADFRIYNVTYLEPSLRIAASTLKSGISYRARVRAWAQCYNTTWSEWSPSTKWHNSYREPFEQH
Method: (§1) The Elisa plates were coated with human IL-4RA-hFc and blocked before the target antibodies were added. […] After the plates were washed, mouse anti-His, HRP (purchased from CoWin Biosciences, Cat No. CW0285A) was added for incubation. The plates were subjected to another wash. A chromogenic reaction was performed by adding TMB (Neogen, 308177) and was then terminated. The Elisa plates were put into a microplate reader immediately, and the OD value of each well in the Elisa plates was read at 450 nm. The data were analyzed and processed by SoftMax Pro 6.2.1.
By 4-parameter logistic regression of absorbance vs. antibody concentration, the blocking EC₅₀ of the antibodies was calculated.

human IL-4RA-hFc [2] = molecular target: T1, human IL-4RA-hFc; assay: competitive ELISA, competitor IL4-N-His (anti-His signal); antibody 3 ug/mL
Method: as §1

human IL-4RA-hFc [3] = molecular target: T1, human IL-4RA-hFc; assay: indirect ELISA, coated IL-4RA-hFc 1 ug/mL, 4-parameter fit
Method: Procedures: The Elisa plates were coated with human IL-4RA-hFc or human IL-4RA-mFc and were incubated, and the target antibodies were added after blocking. […] The plates were incubated and washed before TMB (Neogen, 308177) was added for chromogenic reaction. At the end of the reaction, the absorbance at 450 nm was measured by a microplate reader. The data were analyzed and processed by SoftMax Pro 6.2.1.

B1: anti-human IL-4RA antibody 13E5 (antibody, V domains shown)
VH: EVQLQQSGPELVKPGASVKISCKTSGYTFTEYTIHWVKQNHGKSLEWIGGINPNNGGTVYNQNFKGKATLTVDKSSSTAYMELRSLTSEDSAVYYCARVRRGMDYWGQGTSVTVSS
VL: DIVMTQSHKFMSTSVGDRVSITCKASQDVTTAVAWYQQKPGQSPKLLIYSASYRYTGVPDRFTGSGSGTDFTFTISSVQAEDLAVYYCQQHYSAPWTFGGGTNLEIK
notes: also called murine antibody 13E5; monoclonal antibody of hybridoma cell line LT008 (IL-4RA-13E5), CCTCC NO: C2018131
**Q.** B1 was tested. Which EC50 (human IL-4RA-hFc [1]) did it give?
**A.** Its EC50 is 3 nM.

**Q.** What about the “OD 450 nm” value (human IL-4RA-hFc [2]) of the same binder?
**A.** Its value is 0.053 OD.

**Q.** What about the EC50 (human IL-4RA-hFc [3]) of the same binder?
**A.** Its EC50 is 0.084 nM.
